The supplement of paper PMC10567573

B1: CPOX (parent)
chain: HAPTIHFNYRYFEVEEADGNKQWW
B2: INTS3 (parent)
chain: AQLQALRQKEVDFCISLLRERFME

Variants of: B1
Test: protein stability index of a GFP-peptide fusion (GPS, HEK-293T) (PSI 1-6); higher = more stable
Details: c terminus: a fixed tail appended
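Also: lentivirally expressed fusions sorted by FACS into six bins by GFP to DsRed ratio, PSI derived from sequencing read proportions per bin multiplied by bin number.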

Protein stability index of substitutions, site by site:
W23: P 3.34; R 3.03; E 4.22; G 2.8; C 2.07; N 3.71; T 2.63; Q 3.38; M 3.04; D 4.27; L 2.73; A 3.94; Y 2.33; I 2.58; K 3.35; H 3.06; F 2.04; V 2.36; S 3.19
W24: K 3.24; V 3.1; N 3.06; F 2.69; H 3.03; S 2.91; D 3.82; M 3.4; G 2.81; R 3.11; E 3.06; L 2.66; P 2.91; T 2.86; A 3.17; C 2.63; Q 2.34; I 3.35; Y 2.51
Q22: W 2; I 2.3; P 2.56; V 1.9; N 2.19; S 1.59; T 2.27; Y 2.5; L 2.01; M 1.76; R 2.5

Variants of: B2
Test: as above
Details: c terminus: a fixed tail appended

Protein stability index: each site, then its substitutions
R7: V 1.74; K 2.71; W 2.6; L 2.24; N 2.35; H 2.84; F 2.46; Q 2.73; Y 3.17; P 2.23; T 3.43; S 2.93; D 1.65; G 4.64
V11: F 2.1; Y 2.73; W 2.14; R 1.99; T 1.81; C 1.29; H 3.66; E 2.54; A 2.23; D 2.49; Q 1.81; M 3.61; S 1.67; L 4.26; N 2.25; P 2.7; K 1.7; G 1.72
L3: W 2.71; H 1.41; Q 1.78; T 1.44; R 1.19; N 1.55; C 1.76; I 2.87; D 1.81; P 1.62; E 2.21; A 2.15; G 2.11; S 1.76; K 1.5; M 2
Q8: V 3.32; D 2.83; A 2.62; G 2.55; N 2.37; T 3.06; L 1.78; H 3.1; I 3.36; P 1.22; K 1.65; S 3.06; Y 4.01; E 1.91; R 1.91
A5: D 2.68; N 2.61; T 1.65; K 1.92; I 2.07; C 3.02; F 4.25; R 2.15; M 1.51; V 1.04; H 2.44; E 2.24; S 2.33; Y 2.68; L 3.11
Q2: M 3.7; R 4.11; D 3.29; C 2.98; T 3.02; W 2.42; H 4.58; Y 3.15; N 3.27; E 1.48; P 2.38; F 2.63; I 1.67; G 3.4
Q4: E 2.81; A 3.65; G 2.13; C 1.93; W 3.64; N 2.4; R 2.3; V 2.98; D 2.04; P 1.5; L 2.45; F 1.83; H 3.32; M 2.55; I 3.2; T 3.02; S 1.55
E10: P 2.72; F 2.15; A 2.86; L 3.79; M 2.87; W 1.53; C 1.02; R 2.09; G 2.1; K 2.2; N 1.32; I 2.25; Y 1.49; S 3.14; D 1.04
K9: R 2.32; H 3.64; D 1.9; G 2.51; L 2.48; Y 3.51; N 1.93; C 2.98; S 2.29; T 2.45; M 2.65; E 2.18; P 2.91; I 3.07; W 1.45; F 2.45; Q 3.5
L17: D 2.56; W 2.46; E 2.06; Y 2.51; K 2; Q 2.45; G 2.3; P 2.16; F 1.9; N 2.1; T 1.8; H 1.65; V 3.89; R 2.08; S 1.22; A 2.03
A1: I 2.43; W 2.49; M 2.4; D 2.11; H 3.79; C 3.01; T 3.13; G 2.93; E 2.65; R 2.08; Q 2.43; V 2.85; K 2.62; L 1.61; P 3.68; N 2.73
L18: M 3.87; G 3.07; E 2.57; D 2.38; N 1.97; A 1.7; C 1.02; K 2.34; F 3.16; P 2.04; H 1.76
D12: N 1.59; W 3.08; G 2.1; E 2.45; R 2.19; Q 2.12; P 2.05; I 1.91; H 3.57; C 3.46; L 2.47; F 1.05; V 4.29; Y 2.09; S 3.29; K 1.98; T 2.66
L6: R 2.02; W 1.73; V 2.98; S 2.14; G 1.98; P 2.25; Q 2.02; T 1.86; H 2.11; K 2.31; A 2.13; C 3.33; D 1.96; N 1.97; E 1.52; F 2.59; M 2.44; I 1.93; Y 2.57
S16: K 1.65; L 1.85; Y 3.56; P 2.14; C 3.15; Q 3.15; F 4.27; N 3.32; E 3.24; M 4.38; I 2.38; R 3.39; G 3.67; D 2.09; V 1.11
F13: I 2.49; N 2.37; T 2.44; G 2; L 1.64; W 3.65; H 1.95; K 2.9; A 1.09; C 3.42; V 2.7; R 1.27; P 2.3; M 2.52; D 1.55; Y 5.35; Q 1.82; S 2.19; E 1.66
C14: R 2.16; S 2.02; K 1.93; Q 1.84; T 1.68; W 1.96; G 1.84; D 2.03; N 1.52; E 1.75; I 2.68; L 2.93; Y 2.16; H 1.94; P 2.03
I15: T 2.07; K 2.17; D 2.54; E 2.34; P 2.07; N 2.46; R 1.71; S 1.67; G 2.6; Q 1.77; Y 2.3; W 2.07; H 2.37; L 2.84; M 1.17; A 1.62
